# Results as given in the supplement of paper PMC10567573.
# B1: PHTF1 (parent)
# chain: SRHLNSQVKKTTTRWCHIVRDSDS
# B2: FUT8 (parent)
# chain: YAHQPRTADEIPMEPGDIIGVAGN
# Variants of: B1
# Test: protein stability index of a GFP-peptide fusion (GPS, HEK-293T) (PSI 1-6); higher = more stable
# Settings: c terminus: a fixed tail appended
# 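Further: lentivirally expressed fusions sorted by FACS into six bins by GFP to DsRed ratio, PSI derived from sequencing read proportions per bin multiplied by bin number.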
row,Variant,protein stability index
1,C16I,1.84
2,C16K,2.99
3,C16E,2.34
4,C16F,2.07
5,C16W,2.27
6,C16Q,2.3
7,C16D,3.34
8,C16P,2.57
9,C16Y,2.56
10,C16H,3.28
11,C16R,2.86
12,C16T,2.01
13,C16G,3.53
14,C16L,2.79
15,C16N,3.65
16,C16S,2.14
17,S24T,2.99
18,S24H,2.02
19,S24P,2.01
20,S24R,1.37
21,S24N,2.66
22,S24E,1.9
23,S24C,2
24,S24Y,1.53
25,S24L,1.75
26,S24F,2.04

row,Variant,protein stability index
1,S24W,1.79
2,S24M,2.21
3,S24Q,2.02
4,S24I,1.36
5,S24D,2.75
6,S24K,1.92
7,S24G,2.13
8,S24V,1.88
9,V19A,2.8
10,V19T,3.13
11,V19W,1.62
12,V19N,2.55
13,V19Q,2.81
14,V19G,2.4
15,V19F,1.55
16,V19I,1.75
17,V19E,3.71
18,V19Y,2.44
19,V19S,2.75
20,V19R,2.2
21,V19K,2.3
22,V19M,2.94
23,V19P,2.42
24,V19L,2.35
25,V19H,1.66
26,V19D,3.23

row,Variant,protein stability index
1,V19C,2.19
2,D21E,1.5
3,D21Y,1.69
4,D21L,3.98
5,D21G,1.7
6,D21V,1.37
7,D21W,2.23
8,D21R,1.55
9,D21S,2.14
10,D21A,2.5
11,D21M,1.82
12,D21P,2.57
13,D21K,2.39
14,D21H,1.44
15,D21T,2.79
16,S22F,1.86
17,S22E,1.87
18,S22T,1.94
19,S22Q,2.65
20,S22Y,1.94
21,S22L,1.78
22,S22M,2.15
23,S22C,1.73
24,S22N,1.48
25,S22W,2.08
26,S22I,1.45

row,Variant,protein stability index
1,S22P,1.77
2,S22D,1.72
3,S22K,2.84
4,S22A,1.82
5,I18M,2.34
6,I18A,2.43
7,I18E,3.1
8,I18D,3.92
9,I18L,3.42
10,I18P,3.35
11,I18W,2.15
12,I18N,3.3
13,I18H,2.52
14,I18V,1.73
15,I18S,3.95
16,I18Y,1.74
17,I18R,3.06
18,I18C,2.13
19,I18Q,3.09
20,I18K,2.77
21,I18F,2.82
22,I18G,3.15
23,I18T,2.17
24,D23K,1.74
25,D23G,1.56
26,D23E,1.99

row,Variant,protein stability index
1,D23F,2.65
2,D23A,2.59
3,D23C,1.53
4,D23T,1.78
5,D23R,2.8
6,D23Q,1.84
7,D23S,3.1
8,D23I,2.16
9,D23L,1.75
10,D23V,1.62
11,D23N,1.99
12,D23P,2.78
13,D23H,2.34
14,D23Y,1.88
15,D23M,2.19
16,R20W,1.57
17,R20H,2.29
18,R20Q,2.09
19,R20N,1.45
20,R20C,1.39
21,R20G,1.76
22,R20I,1.18
23,R20Y,2.4
24,R20K,1.25
25,R20M,1.69
26,R20T,2.61

row,Variant,protein stability index
1,R20E,2.75
2,R20A,2.31
3,R20V,3.11
4,R20P,2.3
5,R20D,2.27
6,R20L,2.17
7,R20F,2.37
8,H17Y,2.42
9,H17A,1.42
10,H17S,2.31
11,H17V,1.71
12,H17F,2.75
13,H17L,1.7
14,H17W,2.62
15,H17G,2.65
16,H17M,1.91
17,H17I,1.65
18,H17E,1.29
19,H17Q,1.71
20,H17K,2.59
21,H17T,1.91
22,H17P,2.31
23,H17N,2.43
24,H17C,1.66
25,H17R,2.58

# Variants of: B2
# Test: as above
# Settings: c terminus: a fixed tail appended
row,Variant,protein stability index
1,A2M,4.38
2,A2E,5.05
3,A2P,4.43
4,A2N,4.92
5,A2W,3.63
6,A2G,4.69
7,A2I,3.15
8,A2S,4.53
9,A2R,4.56
10,A2Q,4.09
11,A2F,4.45
12,A2V,2.39
13,A2H,3.59
14,A2L,4.67
15,A2K,4.51
16,A2T,4.49
17,A2D,5.06
18,A2Y,4.3
19,A2C,4.03
20,H3K,4.34
21,H3R,3.44
22,H3Y,3.45
23,H3P,2.92
24,H3G,3.36
25,H3Q,4.39
26,H3N,4.43

row,Variant,protein stability index
1,H3I,4.2
2,H3E,4.87
3,H3A,4.56
4,H3C,3.62
5,H3W,3.11
6,H3M,3.99
7,H3L,4.77
8,H3T,4.25
9,H3V,4.46
10,H3D,4.78
11,H3F,3.66
12,H3S,4.36
13,D9H,3.67
14,D9K,3.51
15,D9L,3.1
16,D9G,3.52
17,D9R,3.41
18,D9Q,3.74
19,D9E,4.09
20,D9S,3.67
21,D9I,2.6
22,D9N,3.65
23,D9Y,2.62
24,D9W,2.16
25,D9F,2.68
26,D9M,3.74

row,Variant,protein stability index
1,D9T,3.57
2,D9P,3.33
3,D9A,3.53
4,D9V,2.52
5,D9C,3.22
6,Q4D,4.36
7,Q4A,4.07
8,Q4W,1.98
9,Q4T,3.72
10,Q4R,3.06
11,Q4K,2.85
12,Q4H,3.92
13,Q4M,3.73
14,Q4V,3.5
15,Q4S,3.8
16,Q4G,3.52
17,Q4L,4.26
18,Q4Y,3.66
19,Q4P,3.52
20,Q4F,2.77
21,Q4E,4.61
22,Q4N,4.07
23,Q4C,3.81
24,Q4I,3.54
25,R6Y,3.73
26,R6W,2.62

row,Variant,protein stability index
1,R6T,4.59
2,R6D,4.54
3,R6N,4.33
4,R6S,4.46
5,R6Q,4.47
6,R6I,4.12
7,R6H,4.25
8,R6C,4.05
9,R6K,3.99
10,R6L,4.2
11,R6A,4.48
12,R6G,4.65
13,R6E,5.23
14,R6F,3.46
15,R6M,3.84
16,R6P,4.78
17,R6V,4.44
18,T7A,4.18
19,T7D,4.62
20,T7I,3.66
21,T7R,3.9
22,T7C,2.73
23,T7H,3.66
24,T7Q,4.25
25,T7P,3.97
26,T7E,4.84

row,Variant,protein stability index
1,T7F,2.37
2,T7N,4.51
3,T7L,3.71
4,T7V,3.89
5,T7S,4.12
6,T7Y,3.58
7,T7M,3.68
8,T7K,3.56
9,T7W,2.46
10,T7G,4.18
11,Y1T,5.16
12,Y1G,5.17
13,Y1C,3.93
14,Y1R,4.84
15,Y1Q,5.12
16,Y1S,4.88
17,Y1D,5.19
18,Y1K,5
19,Y1A,5.22
20,Y1P,5.26
21,Y1L,4.75
22,Y1V,4.28
23,Y1F,3.6
24,Y1E,4.92
25,Y1M,5.19
26,Y1N,4.75

row,Variant,protein stability index
1,Y1W,4.52
2,Y1I,5.16
3,Y1H,5.37
4,E10H,3.33
5,E10F,3.14
6,E10K,2.9
7,E10G,2.53
8,E10C,3.25
9,E10I,2.99
10,E10A,3.67
11,E10D,4.18
12,A8I,4.02
13,A8G,4.19
14,A8Q,4.25
15,A8L,3.43
16,A8D,4.49
17,A8P,4.32
18,A8N,4.22
19,A8F,3.48
20,A8Y,3.15
21,A8H,3.87
22,A8S,3.87
23,A8W,2.78
24,A8M,3.74
25,A8E,4.4
26,A8V,3.77

row,Variant,protein stability index
1,A8R,3.89
2,A8C,3.44
3,A8K,3.88
4,A8T,4.24
5,P5E,4.62
6,P5R,3.55
7,P5S,3.85
8,P5T,4.31
9,P5I,3.4
10,P5F,3.11
11,P5D,4.93
12,P5Q,4.12
13,P5A,4.23
14,P5N,4.33
15,P5W,1.88
16,P5H,3.85
17,P5K,3.61
18,P5L,3.75
19,P5M,3.53
20,P5Y,3.48
21,P5V,3.92
22,P5G,3.96
23,P5C,3.72
